Assay results from patent US20180326084A1 (Genmab, published 2018).
Read-outs that look alike come from different tables or passages of the source.

Columns and labels:
[1] = target: T1, Homo sapiens AXL-Mus musculus FN2 domain (p33-AXL-mFN2) (human-mouse chimera, UniProt P30530 26-894); assay: flow cytometry, 1 µg/mL antibody, transfected HEK293F cells
T1 construct: Expressed in HEK293F cells; also called hsAXL-mmFN2; TH1021-mFN2
T1 chain: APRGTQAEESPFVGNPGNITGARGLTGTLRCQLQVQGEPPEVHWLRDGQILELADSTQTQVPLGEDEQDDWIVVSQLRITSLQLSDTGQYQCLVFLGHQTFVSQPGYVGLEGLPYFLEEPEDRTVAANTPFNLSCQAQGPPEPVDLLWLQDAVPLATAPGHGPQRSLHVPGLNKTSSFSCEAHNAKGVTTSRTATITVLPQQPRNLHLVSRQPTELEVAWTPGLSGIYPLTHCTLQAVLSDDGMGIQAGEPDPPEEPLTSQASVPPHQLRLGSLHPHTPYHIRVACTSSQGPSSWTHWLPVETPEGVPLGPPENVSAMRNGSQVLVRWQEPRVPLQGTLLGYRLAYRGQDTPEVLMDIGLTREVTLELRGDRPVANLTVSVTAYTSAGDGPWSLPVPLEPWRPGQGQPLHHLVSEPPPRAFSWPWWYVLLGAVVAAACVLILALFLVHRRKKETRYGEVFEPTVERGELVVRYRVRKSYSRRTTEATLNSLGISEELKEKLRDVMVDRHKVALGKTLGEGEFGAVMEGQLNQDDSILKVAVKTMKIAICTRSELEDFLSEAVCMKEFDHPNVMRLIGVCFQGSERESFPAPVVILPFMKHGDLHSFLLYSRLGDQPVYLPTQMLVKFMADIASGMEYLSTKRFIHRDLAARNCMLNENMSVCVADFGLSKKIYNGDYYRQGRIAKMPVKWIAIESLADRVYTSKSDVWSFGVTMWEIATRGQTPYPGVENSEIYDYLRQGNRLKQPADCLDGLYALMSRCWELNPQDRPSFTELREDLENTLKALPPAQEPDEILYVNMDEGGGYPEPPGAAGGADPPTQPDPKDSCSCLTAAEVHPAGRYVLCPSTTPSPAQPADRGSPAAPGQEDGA

[2] = target: T2, Homo sapiens AXL-Mus musculus FN1 domain (p33-AXL-mFN1) (human-mouse chimera, UniProt P30530 26-894); assay: as above
T2 construct: Expressed in HEK293F cells; also called hsAXL-mmFN1; TH1021-mFN1
T2 chain: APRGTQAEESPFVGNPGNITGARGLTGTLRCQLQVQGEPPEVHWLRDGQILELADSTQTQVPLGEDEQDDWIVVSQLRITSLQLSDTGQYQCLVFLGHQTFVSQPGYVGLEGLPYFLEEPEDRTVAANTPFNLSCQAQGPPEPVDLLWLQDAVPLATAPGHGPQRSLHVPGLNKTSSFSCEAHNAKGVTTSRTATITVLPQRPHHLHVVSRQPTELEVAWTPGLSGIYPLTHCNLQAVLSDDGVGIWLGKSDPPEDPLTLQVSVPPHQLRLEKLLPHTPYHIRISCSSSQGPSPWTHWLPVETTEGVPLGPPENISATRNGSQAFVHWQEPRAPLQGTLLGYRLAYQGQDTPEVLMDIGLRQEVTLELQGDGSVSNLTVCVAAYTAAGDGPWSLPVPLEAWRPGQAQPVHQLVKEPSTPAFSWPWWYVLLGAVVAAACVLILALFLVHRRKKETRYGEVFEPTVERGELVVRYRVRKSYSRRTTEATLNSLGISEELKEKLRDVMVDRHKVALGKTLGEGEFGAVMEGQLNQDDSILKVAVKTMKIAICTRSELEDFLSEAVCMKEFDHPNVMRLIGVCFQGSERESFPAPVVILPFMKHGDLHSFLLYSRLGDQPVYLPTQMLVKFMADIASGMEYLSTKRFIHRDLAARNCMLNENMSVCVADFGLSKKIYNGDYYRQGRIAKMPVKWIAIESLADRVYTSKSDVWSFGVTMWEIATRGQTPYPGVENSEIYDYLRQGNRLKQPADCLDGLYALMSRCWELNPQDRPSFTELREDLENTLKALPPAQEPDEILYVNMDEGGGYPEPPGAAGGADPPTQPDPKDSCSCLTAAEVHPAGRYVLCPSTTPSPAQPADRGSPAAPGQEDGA

[3] = target: T3, Homo sapiens AXL-Mus musculus Ig1 domain (p33-AXL-mIg1) (human-mouse chimera, UniProt P30530 8-894); assay: as above
T3 construct: Expressed in HEK293F cells; also called hsAXL-mmIg1; hsAXL-mmIgl
T3 chain: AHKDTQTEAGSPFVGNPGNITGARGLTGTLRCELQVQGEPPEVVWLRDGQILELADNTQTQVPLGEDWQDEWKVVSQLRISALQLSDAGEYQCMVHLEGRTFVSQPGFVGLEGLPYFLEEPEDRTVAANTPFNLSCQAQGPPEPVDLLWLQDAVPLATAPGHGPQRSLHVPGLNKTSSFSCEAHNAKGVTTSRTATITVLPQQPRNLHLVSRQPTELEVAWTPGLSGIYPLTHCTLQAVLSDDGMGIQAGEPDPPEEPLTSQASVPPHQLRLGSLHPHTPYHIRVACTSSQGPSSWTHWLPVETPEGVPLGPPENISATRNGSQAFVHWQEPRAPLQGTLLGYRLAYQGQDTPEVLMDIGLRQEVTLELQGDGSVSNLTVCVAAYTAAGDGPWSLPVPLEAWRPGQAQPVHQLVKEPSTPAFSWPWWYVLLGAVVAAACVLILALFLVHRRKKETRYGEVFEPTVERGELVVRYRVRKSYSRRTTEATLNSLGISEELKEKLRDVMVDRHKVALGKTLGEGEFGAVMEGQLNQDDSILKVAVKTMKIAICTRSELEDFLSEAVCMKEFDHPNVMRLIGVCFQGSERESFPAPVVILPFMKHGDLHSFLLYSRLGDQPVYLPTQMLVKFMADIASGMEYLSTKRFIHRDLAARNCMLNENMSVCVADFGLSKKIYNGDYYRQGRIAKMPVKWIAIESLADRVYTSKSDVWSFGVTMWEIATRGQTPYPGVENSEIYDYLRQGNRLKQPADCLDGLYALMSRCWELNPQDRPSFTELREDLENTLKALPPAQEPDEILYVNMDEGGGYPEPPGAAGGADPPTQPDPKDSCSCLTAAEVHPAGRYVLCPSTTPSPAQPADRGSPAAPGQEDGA

[4] = target: T4, human AXL (full length) (human, UniProt P30530 26-894); assay: flow cytometry, HEK293T cells transiently transfected with human AXL
T4 construct: also called TH1021-AXL; TH1021-hAXL

[5] = target: T4, human AXL (full length); assay: flow cytometry, A431 cells pre-incubated with 10 µg/mL Gas6 (competitor)
[6] = target: T4, human AXL (full length); assay: flow cytometry, A431 cells, no Gas6
[7] = target: T5, AXLECDHis (human, UniProt P30530 26-447); assay: BLI (Octet), IgG on anti-human Fc sensor, AXLECDHis analyte
T5 construct: theoretical mass 46 kDa used; also called extracellular domain (ECD) of human AXL (aa 1-447) with a C-terminal His tag; soluble recombinant AXL extracellular domain

[8] = target: T5, AXLECDHis; assay: as above; remark: listed apart in the source
[9] = target: T6, human AXL with a cynomolgus monkey extracellular domain (ECD) (cynomolgus monkey (Macaca …, UniProt P30530 26-894)); assay: flow cytometry, HEK293T cells with human AXL carrying cynomolgus ECD
T6 construct: Chimera on transfected HEK293T cells; also called cynomolgus AXL; cynomolgus AXL-ECD
T6 chain: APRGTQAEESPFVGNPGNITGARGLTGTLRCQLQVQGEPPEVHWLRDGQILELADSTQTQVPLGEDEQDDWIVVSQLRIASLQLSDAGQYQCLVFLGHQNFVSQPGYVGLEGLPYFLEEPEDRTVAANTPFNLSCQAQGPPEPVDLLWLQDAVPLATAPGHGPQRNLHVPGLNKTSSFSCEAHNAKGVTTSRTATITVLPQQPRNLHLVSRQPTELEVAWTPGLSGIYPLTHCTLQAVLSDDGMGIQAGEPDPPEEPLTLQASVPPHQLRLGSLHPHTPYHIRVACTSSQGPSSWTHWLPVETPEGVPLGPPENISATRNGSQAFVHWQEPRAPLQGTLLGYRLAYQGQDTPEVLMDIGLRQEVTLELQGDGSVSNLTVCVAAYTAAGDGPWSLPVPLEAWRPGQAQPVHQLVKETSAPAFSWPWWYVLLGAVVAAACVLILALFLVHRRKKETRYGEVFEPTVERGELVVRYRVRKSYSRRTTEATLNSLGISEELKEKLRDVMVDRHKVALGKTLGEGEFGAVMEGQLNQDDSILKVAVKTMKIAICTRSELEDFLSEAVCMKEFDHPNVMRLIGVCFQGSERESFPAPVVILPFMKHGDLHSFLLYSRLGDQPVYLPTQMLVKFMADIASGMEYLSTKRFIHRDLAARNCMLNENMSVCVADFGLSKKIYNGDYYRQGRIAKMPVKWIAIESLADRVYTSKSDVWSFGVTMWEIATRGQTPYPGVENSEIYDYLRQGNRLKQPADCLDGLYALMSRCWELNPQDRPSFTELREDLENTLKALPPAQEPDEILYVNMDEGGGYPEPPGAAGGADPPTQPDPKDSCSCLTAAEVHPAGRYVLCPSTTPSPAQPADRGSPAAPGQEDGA

[10] = target: T4, human AXL (full length); assay: flow cytometry, HEK293T cells with full-length human AXL

B1: IgG1-AXL-171 (antibody, V domains shown)
VH: EVQLLESGGGLVQPGGSLRLSCAASGFTFSSYAMSWVRQAPGKGLEWVSDISVSGGSTYYADSVKGRFTISRDNSKNTLYLQMNSLRAEDTAVYYCAKEGYIWFGESLSYAFDIWGQGTMVTVSS
VL: not shown
- binding result [1]: binds
- binding result [2]: binds
- binding result [3]: binds

B2: IgG1-AXL-148-A-vcDuo3 (antibody, V domains shown)
VH: EVQLLESGGGLVQPGGSLRLSCAASGFTFSSYAMTWVRQAPGKGLEWVSAISISGGSTFYADSVKGRFTISRDNSKNTLYLQMNSLRAEDTAVYYCRGYSGYVYDAFDFWGQGTMVTVSS
VL: DIQMTQSPSSLSASVGDRVTITCRASQGISNWLAWYQQKPEKAPKSLIYAASSLQSGVPSRFSGSGSGTDFTLTISSLQPEDFATYYCQQYNSYPLTFGGGTKVEIK
modifications: drug-linker on lysine(s); chain and position not given
notes: also called IgG1-AXL-148-vcDuostatin3; IgG1-AXL-148-vcDuo3
- binding result [4]: binds

B3: IgG1-AXL-511 (antibody, V domains shown)
VH: EVQLLESGGGLVQPGGSLRLSCAASGFTFSSYAMNWVRQAPGKGLEWVSGISGSGGHTYHADSVKGRFTISRDNSKNTLYLQMNSLRAEDTAVYYCAKDRYDILTGYYNLLDYWGQGTLVTVSS
VL: DIQMTQSPSSLSASVGDRVTITCRASQGISSWLAWYQQKPEEAPKSLIYAASSLQSGVPSRFSGSGSGTDFTLTISSLQPEDFATYYCQQYNSYPLTFGGGAKVEIK
notes: also called clone 511
- EC50 [5]: 0.3 µg/mL
- maximal binding in presence of Gas6 (% of binding in absence of Gas6) [5]: 93%
- EC50 [6]: 0.12 µg/mL
- Kd [7]: 23 nM
- koff [7]: 0.0039 s⁻¹
- kon [7]: 170000 M⁻¹ s⁻¹

B4: IgG1-AXL-183-N52Q (antibody, V domains shown)
VH: QVQLQQWGAGLLKPSETLSLTCAVYGGSFSGYYWSWIRQPPGKGLEWIGEIQQSGSTNYNPSLKSRVTISVDTSKNQFSLKLSSVTAADTSVYYCASGNWDHFFDYWGQGTLVTVSS
VL: DIQMTQSPSSVSASVGDRVTITCRASQGISSWLAWYQHKPGKAPKLLIYATSSLQSGVTSRFSGSGSGTDFTLTISSLQPEDFATYYCQQAKSFPWTFGQGTKVEIK
notes: Expressed as human IgG1,κ; also called IgG1-AXL-183-N520
- Kd [8]: 24 nM
- koff [8]: 0.001 s⁻¹
- kon [8]: 42000 M⁻¹ s⁻¹
- EC50 [9]: 0.324 µg/mL
- EC50 [10]: 0.35 µg/mL
- fold change of dissociation rate against wild-type IgG1-AXL-183 [7]: ~2.5 fold

B5: IgG1-AXL-183-A-vcDuo3 (antibody, V domains shown)
VH: QVQLQQWGAGLLKPSETLSLTCAVYGGSFSGYYWSWIRQPPGKGLEWIGEINQSGSTNYNPSLKSRVTISVDTSKNQFSLKLSSVTAADTSVYYCASGNWDHFFDYWGQGTLVTVSS
VL: DIQMTQSPSSVSASVGDRVTITCRASQGISSWLAWYQHKPGKAPKLLIYATSSLQSGVTSRFSGSGSGTDFTLTISSLQPEDFATYYCQQAKSFPWTFGQGTKVEIK
modifications: drug-linker on lysine(s); chain and position not given
notes: also called IgG1-AXL-183-vcDuostatin3; IgG1-AXL-183-vcDuo3
- EC50 (read off the curve) [4]: ~0.2 µg/mL
